From publication PMC8629192 (bioRxiv, 2021)

Target: SARS-CoV-2 spike RBD-Fc recombinant protein (used for ELISA) (SARS-CoV-2, UniProt P0DTC2)
Assay: ELISA

B1: LRRC15-His (natural protein)
chain: YHGCPSECTCSRASQVECTGARIVAVPTPLPWNAMSLQILNTHITELNESPFLNISALIALRIEKNELSRITPGAFRNLGSLRYLSLANNKLQVLPIGLFQGLDSLESLLLSSNQLLQIQPAHFSQCSNLKELQLHGNHLEYIPDGAFDHLVGLTKLNLGKNSLTHISPRVFQHLGNLQVLRLYENRLTDIPMGTFDGLVNLQELALQQNQIGLLSPGLFHNNHNLQRLYLSNNHISQLPPSVFMQLPQLNRLTLFGNSLKELSPGIFGPMPNLRELWLYDNHISSLPDNVFSNLRQLQVLILSRNQISFISPGAFNGLTELRELSLHTNALQDLDGNVFRMLANLQNISLQNNRLRQLPGNIFANVNGLMAIQLQNNQLENLPLGIFDHLGKLCELRLYDNPWRCDSDILPLRNWLLLNQPRLGTDTVPVCFSPANVRGQSLIIINVNVAVPSVHVPEVPSYPETPWYPDTPSYPDTTSVSSTTELTSPVEDYTDLTTIQVTDDRSVWGMTQAQSG
B1: binds.
